Substrate in data set [1]: Cc1cc(=O)oc2cc(NC(=O)[C@@H](N)CC(=O)O)ccc12
The data set can be described thus: purified protein. The note with it: 50 mM Tris-HCl pH 7.5, 37°C.

Substrate in data set [2]: Cc1cc(=O)oc2cc(NC(=O)[C@@H](N)CCC(=O)O)ccc12
The data set can be described thus: purified protein. The note with it: 50 mM Tris-HCl pH 7.5, 37°C.

B1: DNPP-1 (Caenorhabditis elegans) (protein)
chain: MAAALKPSAPEIRKAAQEFINYLNKAVTPFHATQEVKDRLLQAGFTELPESGHWDIQPTSKYFVTKNRSAILAFAVGGSYKPGSGFSIVVGHTDSPCLRVKPISHQKSDKFLQVGVSTYGGGIWRTWFDRDLSVAGLVIVKNGEKLQHKLIDVKKPVLFIPNLAIHLETDRTTFKPNTETELRPILETFAAAGINAPQKPESTGFADPRNITNNHHPQFLGLIAKEAGCQPEDIVDLDLYLYDTNKAAIVGMEDEFISGARLDNQVGTYTAISGLLESLTGESFKNDPQIRIAACFDNEEVGSDSAMGASSSFTEFVLRRLSAGGSTTAFEEAIGKSMLISADQAHATHPNYSAKHEENHRPAFHGGVVVKVNVNQRYATTSTTHAALKQVAFEAQVPLQVVVVRNDSPCGSTVGPILATKLGLQTVDVGCPQLAMHSIREFADTSSIYQATTLYSTFYERLSTVLSNMQ
Consider B1, for which the Km in “purified protein [1]” is 13.58 10^-3 mM. In addition, the results for the kcat/Km in “purified protein [1]” and in “purified protein [2]” were 10300 M⁻¹ s⁻¹ and 15300 M⁻¹ s⁻¹, respectively.

These data come from article PMC3623637.
